Test results taken from patent publication US20050026233A1, “Methods of monitoring and modulating LKB1 activity and its downstream targets” (Medical Research Council, priority 2003, published 2005).

Tests used:
[1] = target: T1, AMPK (α1β1γ1) (Rattus norvegicus, UniProt P54645); assay: Activation of bacterially expressed AMPK by upstream kinase, SAMS peptide assay; format: biochemical, mammalian; conditions: recombinant AMPK α1β1γ1, MgATP, 30 min at 30° C
T1 construct: made in house; host or cells: bacteria (E. coli per the title of Neumann 2003)
T1 sequence (P54645 13-559 limits assumed): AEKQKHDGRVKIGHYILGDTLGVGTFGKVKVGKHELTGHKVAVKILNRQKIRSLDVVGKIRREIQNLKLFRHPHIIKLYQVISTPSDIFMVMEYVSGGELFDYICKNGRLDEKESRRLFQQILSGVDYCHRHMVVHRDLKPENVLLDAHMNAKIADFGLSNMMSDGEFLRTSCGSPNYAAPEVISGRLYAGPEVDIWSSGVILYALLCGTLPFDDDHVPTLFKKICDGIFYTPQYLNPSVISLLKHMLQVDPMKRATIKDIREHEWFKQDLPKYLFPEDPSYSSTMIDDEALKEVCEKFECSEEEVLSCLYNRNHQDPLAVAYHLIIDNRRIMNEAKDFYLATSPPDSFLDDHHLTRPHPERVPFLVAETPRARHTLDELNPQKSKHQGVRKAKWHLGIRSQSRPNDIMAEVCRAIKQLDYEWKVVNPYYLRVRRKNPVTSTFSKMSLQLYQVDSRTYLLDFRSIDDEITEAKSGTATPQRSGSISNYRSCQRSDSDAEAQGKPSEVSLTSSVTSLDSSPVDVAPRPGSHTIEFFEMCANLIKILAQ
T1 sequence (P80386 whole entry partner): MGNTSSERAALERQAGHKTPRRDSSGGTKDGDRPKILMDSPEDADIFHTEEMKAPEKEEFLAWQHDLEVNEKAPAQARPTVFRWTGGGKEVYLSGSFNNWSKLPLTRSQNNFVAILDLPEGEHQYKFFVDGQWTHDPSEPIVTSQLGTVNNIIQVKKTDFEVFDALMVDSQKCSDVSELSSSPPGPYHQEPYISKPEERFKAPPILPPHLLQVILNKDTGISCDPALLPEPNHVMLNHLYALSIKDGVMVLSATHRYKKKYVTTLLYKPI
T1 sequence (P80385 whole entry partner): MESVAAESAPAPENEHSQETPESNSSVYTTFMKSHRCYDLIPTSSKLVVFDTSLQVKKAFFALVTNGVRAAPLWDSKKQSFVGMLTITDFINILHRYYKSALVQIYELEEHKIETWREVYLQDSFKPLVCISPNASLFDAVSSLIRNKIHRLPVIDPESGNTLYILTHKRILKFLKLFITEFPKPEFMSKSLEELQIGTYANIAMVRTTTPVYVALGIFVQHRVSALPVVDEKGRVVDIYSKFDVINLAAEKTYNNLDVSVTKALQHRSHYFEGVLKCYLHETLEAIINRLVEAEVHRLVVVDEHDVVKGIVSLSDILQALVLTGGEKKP
Description: FIG. 4. Tos3p and LKB1 phosphorylate and activate AMPK in vitro. (A) Bacterially expressed AMPK (α1β1γ1 (Neumann, 2003)) was incubated with MgATP and GST-kinase bound to glutathione-Sepharose for 30 min at 30° C. Following centrifugation to remove the resin, AMPK activity in the supernatant was measured using the SAMS peptide assay (Davies, 1989).
The beads were removed by centrifugation, and proteins in the supernatant were analyzed by SDS-PAGE and autoradiography. Molecular size markers (kDa) are indicated. (C) Bacterially expressed AMPK (0.15 μg) was phosphorylated by GST-Tos3p and analysed by immunoblotting with anti-phosphothreonine 172 specific antibody (Cell Signalling Technologies). […]
Recombinant AMPK (α1β1γ1) expressed in bacteria (Neumann, 2003) was incubated with each of the kinases and MgATP, and AMPK activity was determined using the SAMS peptide assay. […]
Following centrifugation to remove the resin, AMPK activity in the supernatant was measured using the SAMS peptide assay (Davies, 1989).
Bacterially expressed AMPK (α1β1γ1) was purified by chromatography using Ni-NTA agarose (Qiagen) as previously described (the purification is as in Neumann et al., 2003 Protein Expression and Purification, incorporated herein by reference). […] Following brief centrifugation, the supernatant containing AMPK was removed and activity measured using the SAMS peptide assay (Davies et al., 1989). […]

[2] = test system: AMPK; assay: Phosphorylation of T172 of AMPK by immunoblotting with anti-phosphothreonine 172 antibody; format: biochemical, mammalian; conditions: immunoblot
Sequence of AMPK (P54645 13-559 limits assumed): as the sequence (P54645 13-559 limits assumed) above
Sequence of AMPK (P80386 whole entry partner): as the sequence (P80386 whole entry partner) above
Sequence of AMPK (P80385 whole entry partner): as the sequence (P80385 whole entry partner) above
Description: The beads were removed by centrifugation, and proteins in the supernatant were analyzed by SDS-PAGE and autoradiography. Molecular size markers (kDa) are indicated. (C) Bacterially expressed AMPK (0.15 μg) was phosphorylated by GST-Tos3p and analysed by immunoblotting with anti-phosphothreonine 172 specific antibody (Cell Signalling Technologies). AMPK was also incubated with GST or partially purified rat liver AMPKK (Hawley, 1996).
Phosphorylation of T172 was determined by immunoblotting (FIG. 4E).
Bacterially expressed AMPK (α1β1γ1) was purified by chromatography using Ni-NTA agarose (Qiagen) as previously described (the purification is as in Neumann et al., 2003 Protein Expression and Purification, incorporated herein by reference). AMPK was incubated with 100 μM ATP, 5 mM MgCl2, 200 μM AMP and 1 mM DTT in 50 mM Hepes, pH 7.4 in the presence or absence of upstream kinase for 30 min at 30° C. Following brief centrifugation, the supernatant containing AMPK was removed and activity measured using the SAMS peptide assay (Davies et al., 1989). Phosphorylation of T172 was determined by Western blotting using an antibody that specifically recognizes phospho-threonine 172 within the α subunit of AMPK (Cell Signaling Technologies).

B1: LKB1: FLAG-tagged full length wild-type mouse LKB1 tumor suppressor kinase purified from COS7 cell lysates (protein, UniProt Q9WTK7 1-436, looked up)
chain: MDVADPEPLGLFSEGELMSVGMDTFIHRIDSTEVIYQPRRKRAKLIGKYLMGDLLGEGSYGKVKEVLDSETLCRRAVKILKKKKLRRIPNGEANVKKEIQLLRRLRHRNVIQLVDVLYNEEKQKMYMVMEYCVCGMQEMLDSVPEKRFPVCQAHGYFRQLIDGLEYLHSQGIVHKDIKPGNLLLTTNGTLKISDLGVAEALHPFAVDDTCRTSQGSPAFQPPEIANGLDTFSGFKVDIWSAGVTLYNITTGLYPFEGDNIYKLFENIGRGDFTIPCDCGPPLSDLLRGMLEYEPAKRFSIRQIRQHSWFRKKHPLAEALVPIPPSPDTKDRWRSMTVVPYLEDLHGRAEEEEEEDLFDIEDGIIYTQDFTVPGQVLEEEVGQNGQSHSLPKAVCVNGTEPQLSSKVKPEGRPGTANPARKVCSSNKIRRLSACKQQ
modifications: full-length FLAG tag
notes: FLAG-tagged full length wild-type mouse LKB1 tumor suppressor kinase purified from COS7 cell lysates
- AMPK activity after incubation with upstream kinase [1]: activated recombinant AMPK
- Phosphorylation of AMPK on T172 [2]: phosphorylated T172
